# Test results: publication PMC10870172, “Single-molecule FRET probes allosteric effects on protein-translocating pore loops of a AAA+ machine” (Biophysical Journal, 2024)
# B1: Thermus thermophilus ClpB variant with truncated N-terminal domain, starting at residue 141 (Val) (domain or fragment)
# chain: not shown
# notes: ClpB, Thermus thermophilus, N-terminal domain truncated, starting at residue 141 (Val); numbering as in full-length TT ClpB; no cysteine replacement is printed; Theoretical MW of the hexamer 484.8 kDa (D1:p9); also called wt; dNClpB; source: E. coli, purified
# B2: ClpB (N-terminally truncated, from residue 141) S359C-Y646C, labelled with Alexa Fluor 488 and Alexa Fluor 594 (domain or fragment)
# chain: not shown
# modifications: Alexa Fluor 488 C5 maleimide and Alexa Fluor 594 C5 maleimide on the cysteines at 359 and 646
# notes: ClpB, Thermus thermophilus, N-terminal domain truncated, starting at residue 141 (Val); numbering as in full-length TT ClpB; The labelled protomer alone, as mixed 1:100 with unlabelled ClpB (Dm4); also called PL3; PL3 construct S359C-Y646C; source: E. coli, purified, labelled
# B3: ClpB (N-terminally truncated, from residue 141) K347A (domain or fragment)
# chain: not shown
# notes: ClpB, Thermus thermophilus, N-terminal domain truncated, starting at residue 141 (Val); numbering as in full-length TT ClpB; also called hyper; hyperactive mutant; source: E. coli, purified
# B4: κ-casein (natural protein)
# chain: not shown
# notes: κ-casein (Sigma Aldrich), unlabelled soluble model substrate protein; also called model substrate protein; source: bought: Sigma Aldrich
# B5: ClpB (N-terminally truncated, from residue 141) K204T (domain or fragment, Thermus thermophilus, UniProt Q9RA63 141-854, looked up)
# chain: VQTEHAESTYNALEQYGIDLTRLAAEGKLDPVIGRDEEIRRVIQILLRRTKNNPVLIGEPGVGTTAIVEGLAQRIVKGDVPEGLKGKRIVSLQMGSLLAGAKYRGEFEERLKAVIQEVVQSQGEVILFIDELHTVVGAGKAEGAVDAGNMLKPALARGELRLIGATTLDEYREIEKDPALERRFQPVYVDEPTVEETISILRGLKEKYEVHHGVRISDSAIIAAATLSHRYITERRLPDKAIDLIDEAAARLRMALESAPEEIDALERKKLQLEIEREALKKEKDPDSQERLKAIEAEIAKLTEEIAKLRAEWEREREILRKLREAQHRLDEVRREIELAERQYDLNRAAELRYGELPKLEAEVEALSEKLRGARFVRLEVTEEDIAEIVSRWTGIPVSKLLEGEREKLLRLEEELHKRVVGQDEAIRAVADAIRRARAGLKDPNRPIGSFLFLGPTGVGKTELAKTLAATLFDTEEAMIRIDMTEYMEKHAVSRLIGAPPGYVGYEEGGQLTEAVRRRPYSVILFDEIEKAHPDVFNILLQILDDGRLTDSHGRTVDFRNTVIILTSNLGSPLILEGLQKGWPYERIRDEVFKVLQQHFRPEFLNRLDEIVVFRPLTKEQIRQIVEIQLSYLRARLAEKRISLELTEAAKDFLAERGYDPVFGARPLRRVIQRELETPLAQKILAGEVKEGDRVQVDVGPAGLVFAVPARVEA
# notes: ClpB, Thermus thermophilus, N-terminal domain truncated, starting at residue 141 (Val); numbering as in full-length TT ClpB; also called A1; Walker A1; source: E. coli, purified
# B6: ClpB (N-terminally truncated, from residue 141) E271A (domain or fragment, Thermus thermophilus, UniProt Q9RA63 141-854, looked up)
# chain: VQTEHAESTYNALEQYGIDLTRLAAEGKLDPVIGRDEEIRRVIQILLRRTKNNPVLIGEPGVGKTAIVEGLAQRIVKGDVPEGLKGKRIVSLQMGSLLAGAKYRGEFEERLKAVIQEVVQSQGEVILFIDALHTVVGAGKAEGAVDAGNMLKPALARGELRLIGATTLDEYREIEKDPALERRFQPVYVDEPTVEETISILRGLKEKYEVHHGVRISDSAIIAAATLSHRYITERRLPDKAIDLIDEAAARLRMALESAPEEIDALERKKLQLEIEREALKKEKDPDSQERLKAIEAEIAKLTEEIAKLRAEWEREREILRKLREAQHRLDEVRREIELAERQYDLNRAAELRYGELPKLEAEVEALSEKLRGARFVRLEVTEEDIAEIVSRWTGIPVSKLLEGEREKLLRLEEELHKRVVGQDEAIRAVADAIRRARAGLKDPNRPIGSFLFLGPTGVGKTELAKTLAATLFDTEEAMIRIDMTEYMEKHAVSRLIGAPPGYVGYEEGGQLTEAVRRRPYSVILFDEIEKAHPDVFNILLQILDDGRLTDSHGRTVDFRNTVIILTSNLGSPLILEGLQKGWPYERIRDEVFKVLQQHFRPEFLNRLDEIVVFRPLTKEQIRQIVEIQLSYLRARLAEKRISLELTEAAKDFLAERGYDPVFGARPLRRVIQRELETPLAQKILAGEVKEGDRVQVDVGPAGLVFAVPARVEA
# notes: ClpB, Thermus thermophilus, N-terminal domain truncated, starting at residue 141 (Val); numbering as in full-length TT ClpB; also called B1; Walker B1; source: E. coli, purified
# B7: ClpB (N-terminally truncated, from residue 141) double Walker B mutant E271A/E668A (domain or fragment, Thermus thermophilus, UniProt Q9RA63 141-854, looked up)
# chain: VQTEHAESTYNALEQYGIDLTRLAAEGKLDPVIGRDEEIRRVIQILLRRTKNNPVLIGEPGVGKTAIVEGLAQRIVKGDVPEGLKGKRIVSLQMGSLLAGAKYRGEFEERLKAVIQEVVQSQGEVILFIDALHTVVGAGKAEGAVDAGNMLKPALARGELRLIGATTLDEYREIEKDPALERRFQPVYVDEPTVEETISILRGLKEKYEVHHGVRISDSAIIAAATLSHRYITERRLPDKAIDLIDEAAARLRMALESAPEEIDALERKKLQLEIEREALKKEKDPDSQERLKAIEAEIAKLTEEIAKLRAEWEREREILRKLREAQHRLDEVRREIELAERQYDLNRAAELRYGELPKLEAEVEALSEKLRGARFVRLEVTEEDIAEIVSRWTGIPVSKLLEGEREKLLRLEEELHKRVVGQDEAIRAVADAIRRARAGLKDPNRPIGSFLFLGPTGVGKTELAKTLAATLFDTEEAMIRIDMTEYMEKHAVSRLIGAPPGYVGYEEGGQLTEAVRRRPYSVILFDAIEKAHPDVFNILLQILDDGRLTDSHGRTVDFRNTVIILTSNLGSPLILEGLQKGWPYERIRDEVFKVLQQHFRPEFLNRLDEIVVFRPLTKEQIRQIVEIQLSYLRARLAEKRISLELTEAAKDFLAERGYDPVFGARPLRRVIQRELETPLAQKILAGEVKEGDRVQVDVGPAGLVFAVPARVEA
# notes: ClpB, Thermus thermophilus, N-terminal domain truncated, starting at residue 141 (Val); numbering as in full-length TT ClpB; also called BB; source: E. coli, purified
# B8: ClpB (N-terminally truncated, from residue 141) E668A (domain or fragment)
# chain: not shown
# notes: ClpB, Thermus thermophilus, N-terminal domain truncated, starting at residue 141 (Val); numbering as in full-length TT ClpB; also called B2; Walker B2; source: E. coli, purified
# Columns and labels:
# [1] = molecular target: the molecule itself; assay: native gel or EMSA; native gel (6% acrylamide), stained with Coomassie Blue; run at 4°C, 30 V, 2 mM ATP, 4 mM Mg2+; NativeMark Unstained Protein Standard
# [2] = molecular target: B1; assay: native gel or EMSA; native PAGE (6% acrylamide) of 1:100 labeled:unlabeled ClpB samples after the refolding and mixing procedure; stained with Coomassie Blue, panel a also imaged with a Typhoon scanner at 532 nm; run at 4°C, 30 V, 2 mM ATP, 4 mM Mg2+; details: both partners purified
# [3] = molecular target: the molecule itself; assay: as above
# [4] = molecular target: T1, PL1 BB: reassembled ClpB hexamer with one Alexa-labelled S236C-S359C E271A/E668A protomer among unlabelled … (Thermus thermophilus, UniProt Q9RA63 141-854; Q9RA63 141-854, S236C | S359C | E271A | E668A | E271A | E668A, Alexa Fluor 488 C5 maleimide and Alexa Fluor 594 C5 maleimide on the cysteines at 236 and 359); assay: other fluorescence titration; single-molecule FRET on freely diffusing reassembled ClpB hexamers (1:100 labeled:unlabeled, ~50 pM labeled, ~5 nM total ClpB), increasing concentrations of unlabeled κ-casein; ratio of the H2MM-derived population of state 1 with and without casein fitted to a simple binding isotherm; 25 mM HEPES, 25 mM KCl, 10 mM MgCl2, 2 mM ATP, 0.01% Tween 20, pH 8, 22°C; details: both partners purified
# T1 construct: ClpB, Thermus thermophilus, N-terminal domain truncated, starting at residue 141 (Val); numbering as in full-length TT ClpB; ClpB, Thermus thermophilus, N-terminal domain truncated, starting at residue 141 (Val), unlabelled cysteine-less; With the 1:100 ratio most hexamers hold no labelled protomer; only hexamers with one labelled protomer give the signal; also called PL1 double-Walker B …
# [5] = molecular target: T2, PL3 BB: reassembled ClpB hexamer with one Alexa-labelled S359C-Y646C E271A/E668A protomer among unlabelled … (Thermus thermophilus, UniProt Q9RA63 141-854; Q9RA63 141-854, S359C | Y646C | E271A | E668A | E271A | E668A, Alexa Fluor 488 C5 maleimide and Alexa Fluor 594 C5 maleimide on the cysteines at 359 and 646); assay: as above; details: both partners purified
# T2 construct: ClpB, Thermus thermophilus, N-terminal domain truncated, starting at residue 141 (Val); numbering as in full-length TT ClpB; ClpB, Thermus thermophilus, N-terminal domain truncated, starting at residue 141 (Val), unlabelled cysteine-less; With the 1:100 ratio most hexamers hold no labelled protomer; only hexamers with one labelled protomer give the signal; also called PL3 double-Walker B …
binder,measurement,setting,value
B1,stoichiometry N,[1],6
B2,binding result,[2],binds
B3,binding result,[3],binds
B4,Kd,[4],2000 nM
same,Kd,[5],1600 nM
B5,binding result,[3],binds
B6,binding result,[3],binds
B7,stoichiometry N,[1],6
B8,binding result,[3],binds
